T1: FcγRIIb extracellular domain with C-terminal His tag (human, UniProt P31994 43-217)
T1 construct: extracellular domain; also called 2b; FcgRIIb; not shown: His tag at the C terminus
T1 sequence (looked up): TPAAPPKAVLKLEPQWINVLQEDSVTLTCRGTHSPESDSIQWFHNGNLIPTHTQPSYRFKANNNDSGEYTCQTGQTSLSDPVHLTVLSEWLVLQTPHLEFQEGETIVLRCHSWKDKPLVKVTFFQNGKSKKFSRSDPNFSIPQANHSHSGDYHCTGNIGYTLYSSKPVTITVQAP

B1: GpH7-A5/GpH7-B3 variant L328_20W/GpL16-k0 (antibody, human IgG1, kappa)
heavy 1: not shown
heavy 2: not shown
light: DIVMTQSPLSLPVTPGEPASISCQASESLVHSNRNTYLHWYLQKPGQSPQLLIYKVSNRFSGVPDRFSGSGSGTDFTLKISRVEAEDVGVYYCSQNTHVPPTFGQGTKVEIERTVAAPSVFIFPPSDEQLKSGTASVVCLLNNFYPREAKVQWKVDNALQSGNSQESVTEQDSKDSTYSLSSTLTLSKADYEKHKVYACEVTHQGLSSPVTKSFNRGEC
notes: He Ab: mutation in the GpH7-B3 H chain only; also called He Ab
B2: GpH7-A5/GpH7-B3 variant N325_03V/GpL16-k0 (antibody, human IgG1, kappa)
heavy 1: not shown
heavy 2: not shown
light: B1 light
notes: as for B1
B3: GpH7-A5/GpH7-B3 variant N325_04F/GpL16-k0 (antibody, human IgG1, kappa)
heavy 1: not shown
heavy 2: not shown
light: B1 light
notes: as for B1
B4: GpH7-A5/GpH7-B3 variant N325_06M/GpL16-k0 (antibody, human IgG1, kappa)
heavy 1: not shown
heavy 2: not shown
light: B1 light
notes: as for B1
B5: GpH7-A5/GpH7-B3 variant N325_07I/GpL16-k0 (antibody, human IgG1, kappa)
heavy 1: not shown
heavy 2: not shown
light: B1 light
notes: as for B1
B6: GpH7-A5/GpH7-B3 variant N325_08L/GpL16-k0 (antibody, human IgG1, kappa)
heavy 1: not shown
heavy 2: not shown
light: B1 light
notes: as for B1
B7: GpH7-A5/GpH7-B3 variant N325_09D/GpL16-k0 (antibody, human IgG1, kappa)
heavy 1: not shown
heavy 2: not shown
light: B1 light
notes: as for B1
B8: GpH7-A5/GpH7-B3 variant N325_13S/GpL16-k0 (antibody, human IgG1, kappa)
heavy 1: not shown
heavy 2: not shown
light: B1 light
notes: as for B1
B9: GpH7-A5/GpH7-B3 variant N325_20W/GpL16-k0 (antibody, human IgG1, kappa)
heavy 1: not shown
heavy 2: not shown
light: B1 light
notes: as for B1
B10: GpH7-A5/GpH7-B3 variant P331_03V/GpL16-k0 (antibody, human IgG1, kappa)
heavy 1: not shown
heavy 2: not shown
light: B1 light
notes: as for B1
B11: GpH7-A5/GpH7-B3 variant P331_04F/GpL16-k0 (antibody, human IgG1, kappa)
heavy 1: not shown
heavy 2: not shown
light: B1 light
notes: as for B1
B12: GpH7-A5/GpH7-B3 variant P331_06M/GpL16-k0 (antibody, human IgG1, kappa)
heavy 1: not shown
heavy 2: not shown
light: B1 light
notes: as for B1
B13: GpH7-A5/GpH7-B3 variant P331_07I/GpL16-k0 (antibody, human IgG1, kappa)
heavy 1: not shown
heavy 2: not shown
light: B1 light
notes: as for B1
B14: GpH7-A5/GpH7-B3 variant P331_10E/GpL16-k0 (antibody, human IgG1, kappa)
heavy 1: not shown
heavy 2: not shown
light: B1 light
notes: as for B1
B15: GpH7-A5/GpH7-B3 variant P331_15Y/GpL16-k0 (antibody, human IgG1, kappa)
heavy 1: not shown
heavy 2: not shown
light: B1 light
notes: as for B1
B16: GpH7-A5/GpH7-B3 variant P331_16H/GpL16-k0 (antibody, human IgG1, kappa)
heavy 1: not shown
heavy 2: not shown
light: B1 light
notes: as for B1
B17: GpH7-A5/GpH7-B3 variant P331_20W/GpL16-k0 (antibody, human IgG1, kappa)
heavy 1: not shown
heavy 2: not shown
light: B1 light
notes: as for B1
B18: GpH7-A5/GpH7-B3 variant S267_01G/GpL16-k0 (antibody, human IgG1, kappa)
heavy 1: not shown
heavy 2: not shown
light: B1 light
notes: as for B1
B19: GpH7-A5/GpH7-B3 variant S267_02A/GpL16-k0 (antibody, human IgG1, kappa)
heavy 1: not shown
heavy 2: not shown
light: B1 light
notes: as for B1
B20: GpH7-A5/GpH7-B3 variant S267_03V/GpL16-k0 (antibody, human IgG1, kappa)
heavy 1: not shown
heavy 2: not shown
light: B1 light
notes: as for B1
B21: GpH7-A5/GpH7-B3 variant S267_04F/GpL16-k0 (antibody, human IgG1, kappa)
heavy 1: not shown
heavy 2: not shown
light: B1 light
notes: as for B1
B22: GpH7-A5/GpH7-B3 variant S267_05P/GpL16-k0 (antibody, human IgG1, kappa)
heavy 1: not shown
heavy 2: not shown
light: B1 light
notes: as for B1

Biological target: T2, FcγRIIIa extracellular domain with C-terminal His tag (human, UniProt P08637 17-208)
T2 construct: extracellular domain; also called 3a; FcgRIIIa; not shown: His tag at the C terminus
Assay: SPR (Biacore), relative binding, GpH7-A5/GpH7-B3/GpL16-k0 = 100
Description: (§1) Analysis of interaction between objective antibody and the FcγR was carried out using Biacore T100 (GE Healthcare). HBS-EP+ (GE Healthcare) was used as the running buffer, and the measurement temperature was set to 25° C. Chips produced by immobilizing the antigen peptide by the amine coupling method to a Series S Sencor Chip CM5 (GE Healthcare), or alternatively, chips produced by allowing preliminarily biotinylated antigen peptides to interact with and immobilize onto a Series S Sensor Chip SA (certified) (GE Healthcare) were used. Antibodies of interest were captured onto an antigen peptide-immobilized chip, and allowed to interact to each FcγR diluted with running buffer. To regenerate and repeatedly use the chip, the antibodies captured on the chip were washed off by reacting 10 mM glycine-HCl, pH 1.5.
(§2) The FcγR-binding activity of each antibody was assessed primarily using as an indicator the FcγR-binding activity and dissociation constant for FcγR.

T2 sequence (P08637 17-208): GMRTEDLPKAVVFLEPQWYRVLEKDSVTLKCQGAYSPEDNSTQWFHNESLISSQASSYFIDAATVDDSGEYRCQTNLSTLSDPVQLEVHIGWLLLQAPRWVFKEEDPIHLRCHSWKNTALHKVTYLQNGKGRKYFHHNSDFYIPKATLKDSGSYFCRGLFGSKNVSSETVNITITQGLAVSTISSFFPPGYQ

He/Con_3a	Binder
37.4 % of control	B1
30.3 % of control	B2
20.7 % of control	B3
31.4 % of control	B4
28.7 % of control	B5
33.3 % of control	B6
48 % of control	B7
65.1 % of control	B8
32.8 % of control	B9
73.2 % of control	B10
77.3 % of control	B11
74.8 % of control	B12
66 % of control	B13
75.1 % of control	B14
81.9 % of control	B15
80.2 % of control	B16
78.6 % of control	B17
53.8 % of control	B18
150 % of control	B19
30.8 % of control	B20
11 % of control	B21
15.7 % of control	B22

Biological target: T1, FcγRIIb extracellular domain with …
Assay: as above
Description: as §1, §2

He/Con_2b	Binder
235 % of control	B1
111 % of control	B2
143 % of control	B3
217 % of control	B4
171 % of control	B5
197 % of control	B6
124 % of control	B7
177 % of control	B8
169 % of control	B9
119 % of control	B10
110 % of control	B11
102 % of control	B12
114 % of control	B13
116 % of control	B14
114 % of control	B15
116 % of control	B16
111 % of control	B17
105 % of control	B18
243 % of control	B19
192 % of control	B20
48 % of control	B21
31.5 % of control	B22

Source: US20180155451A1 (published 2018)
